According to patent US20200368258A1 (NORTHWESTERN UNIVERSITY, published 2020):
No end group written: not given here. *: point of attachment. FITC = O=C1OC2(c3ccc(O)cc3Oc3cc(O)ccc32)c2ccc(NC(=S)*)cc21

Target: T1, WWP2 recombinant protein (SEQ ID NO:24) (Homo sapiens (Human), UniProt O00308 1-870)
T1 construct: It was expressed with a pET28b His-tag/thrombin leader; also called WWP2 polypeptide; Nedd4 WWP2
Assay: fluorescence polarization, WWP2 dose-response up to 19.6 µM, FITC-peptide probe at 5 nM

T1 sequence (O00308 other isoform, or with tags, fused parts or gaps limits assumed): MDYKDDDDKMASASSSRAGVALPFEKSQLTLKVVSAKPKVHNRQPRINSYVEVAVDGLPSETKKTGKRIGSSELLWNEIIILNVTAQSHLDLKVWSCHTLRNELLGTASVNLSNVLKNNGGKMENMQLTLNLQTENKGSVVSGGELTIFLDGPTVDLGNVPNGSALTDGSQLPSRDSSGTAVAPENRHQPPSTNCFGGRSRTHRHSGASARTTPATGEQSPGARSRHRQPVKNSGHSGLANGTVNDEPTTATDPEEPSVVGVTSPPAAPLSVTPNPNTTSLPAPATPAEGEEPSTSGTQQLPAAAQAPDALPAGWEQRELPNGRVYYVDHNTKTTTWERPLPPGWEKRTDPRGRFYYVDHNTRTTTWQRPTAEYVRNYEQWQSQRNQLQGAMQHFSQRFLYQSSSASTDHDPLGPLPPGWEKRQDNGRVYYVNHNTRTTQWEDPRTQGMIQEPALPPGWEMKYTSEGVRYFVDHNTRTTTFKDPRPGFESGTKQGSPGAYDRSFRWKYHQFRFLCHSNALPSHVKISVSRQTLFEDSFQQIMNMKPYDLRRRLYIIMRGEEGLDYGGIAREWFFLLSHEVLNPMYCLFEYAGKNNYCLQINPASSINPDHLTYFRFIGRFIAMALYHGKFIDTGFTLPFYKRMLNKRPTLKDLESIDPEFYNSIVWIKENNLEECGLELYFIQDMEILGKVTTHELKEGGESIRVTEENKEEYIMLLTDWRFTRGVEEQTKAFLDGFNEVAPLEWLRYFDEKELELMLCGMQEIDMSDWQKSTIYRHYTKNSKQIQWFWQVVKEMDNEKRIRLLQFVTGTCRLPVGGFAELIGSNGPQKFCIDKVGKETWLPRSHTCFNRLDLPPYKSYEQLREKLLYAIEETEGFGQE

B1: FITC-labeled peptide probe with three tandem PY motif binding units derived from the p2 region of ASLV gag (SEQ ID NO:18) (peptide)
peptide: {FITC}-ATASAPPPYVGSGGGATASAPPPYVGSGGGATASAPPPYVGSGGGRRR
notes: Synthetic peptide (Biosynthesis, TX); also called FITC-peptide; FTIC-peptide
Kd: 200 nM
